Laboratory results from article PMC6649833.

Legend:
N15 Cro-His6 = target: T1, N15 Cro-His6 (bacteriophage N15, UniProt Q37964 1-71); experiment: EMSA
T1 sequence: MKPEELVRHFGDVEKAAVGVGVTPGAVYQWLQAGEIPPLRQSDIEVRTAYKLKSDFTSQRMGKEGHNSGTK

N15 Cro [1] = target: T2, N15 Cro (bacteriophage N15, UniProt Q37964 1-71); experiment: EMSA
T2 sequence: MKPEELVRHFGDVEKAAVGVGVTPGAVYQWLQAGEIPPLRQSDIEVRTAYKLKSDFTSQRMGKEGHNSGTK

N15 Cro [2] = target: T2, N15 Cro; experiment: X-ray crystallography

B1: N15 OR3 28 bp (dsDNA)
DNA 1: GCAAAATTATAGCCAGCTATAAAGAGCG
DNA 2: CGCTCTTTATAGCTGGCTATAATTTTGC
N15 Cro-His6
  Kd: 91 ± 11 nM
N15 Cro [1]
  Kd: 90 ± 7 nM

B2: N15 symmetric consensus OR 16 bp (dsDNA)
DNA 1: TTTATAGCTAGCTATAA
DNA 2: TTTATAGCTAGCTATAA
N15 Cro [2]
  binding result: binds
